This is an account of results in publication doi:10.1101/303024 (bioRxiv, 2018).

The assay addresses T1, Cdc24-6xHis (full-length, wild type) (S. cerevisiae (budding yeast), UniProt P11433 1-854).
T1 sequence: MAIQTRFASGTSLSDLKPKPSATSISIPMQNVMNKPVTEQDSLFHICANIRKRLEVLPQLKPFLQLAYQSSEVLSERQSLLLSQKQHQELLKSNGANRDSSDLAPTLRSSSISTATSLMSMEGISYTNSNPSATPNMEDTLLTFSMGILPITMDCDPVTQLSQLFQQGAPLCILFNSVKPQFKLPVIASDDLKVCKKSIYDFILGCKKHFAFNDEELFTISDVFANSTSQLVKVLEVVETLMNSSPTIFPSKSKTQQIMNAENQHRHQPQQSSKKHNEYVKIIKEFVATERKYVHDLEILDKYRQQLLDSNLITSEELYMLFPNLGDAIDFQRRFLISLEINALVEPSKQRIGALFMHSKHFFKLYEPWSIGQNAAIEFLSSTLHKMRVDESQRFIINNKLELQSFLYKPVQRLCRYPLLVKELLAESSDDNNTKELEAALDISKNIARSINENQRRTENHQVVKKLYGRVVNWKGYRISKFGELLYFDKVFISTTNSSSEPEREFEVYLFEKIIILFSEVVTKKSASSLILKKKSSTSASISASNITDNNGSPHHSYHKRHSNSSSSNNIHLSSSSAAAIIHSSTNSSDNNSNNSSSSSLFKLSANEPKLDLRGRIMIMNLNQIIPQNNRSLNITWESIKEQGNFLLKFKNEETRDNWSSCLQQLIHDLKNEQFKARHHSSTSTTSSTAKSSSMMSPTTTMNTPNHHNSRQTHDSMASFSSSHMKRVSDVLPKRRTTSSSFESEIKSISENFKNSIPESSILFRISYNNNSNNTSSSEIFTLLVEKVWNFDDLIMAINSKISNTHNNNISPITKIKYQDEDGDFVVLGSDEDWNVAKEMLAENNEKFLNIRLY
Nature of the assay: liposome floatation.

B1: Bem1 (full-length, wild type) (natural protein)
chain: MLKNFKLSKRDSNGSKGRITSADISTPSHDNGSVIKHIKTVPVRYLSSSSTPVKSQRDSSPKNRHNSKDITSPEKVIKAKYSYQAQTSKELSFMEGEFFYVSGDEKDWYKASNPSTGKEGVVPKTYFEVFDRTKPSSVNGSNSSSRKVTNDSLNMGSLYAIVLYDFKAEKADELTTYVGENLFICAHHNCEWFIAKPIGRLGGPGLVPVGFVSIIDIATGYATGNDVIEDIKSVNLPTVQEWKSNIARYKASNISLGSVEQQQQQSITKPQNKSAKLVDGELLVKASVESFGLEDEKYWFLVCCELSNGKTRQLKRYYQDFYDLQVQLLDAFPAEAGKLRDAGGQWSKRIMPYIPGPVPYVTNSITKKRKEDLNIYVADLVNLPDYISRSEMVHSLFVVLNNGFDREFERDENQNNIKTLQENDTATFATASQTSNFASTNQDNTLTGEDLKLNKKLSDLSLSGSKQAPAQSTSGLKTTKIKFYYKDDIFALMLKGDTTYKELRSKIAPRIDTDNFKLQTKLFDGSGEEIKTDSQVSNIIQAKLKISVHDI
Turning to B1, the binding result is on record as “binds”.
